Source: article PMC2615625

What was measured:
NM23-H2 K12A = NM23-H2 K12A (UniProt P22392 1-152, K12A); assay: EMSA with FRET detection
NM23-H2 H118C = NM23-H2 H118C (UniProt P22392 1-152, H118C); assay: EMSA with FRET detection
NM23-H2 wild type [1] = target: T1, NM23-H2 wild type (UniProt P22392 1-152); assay: EMSA with FRET detection
NM23-H2 wild type [2] = target: T1, NM23-H2 wild type; assay: EMSA

T1 sequence (P22392 whole entry): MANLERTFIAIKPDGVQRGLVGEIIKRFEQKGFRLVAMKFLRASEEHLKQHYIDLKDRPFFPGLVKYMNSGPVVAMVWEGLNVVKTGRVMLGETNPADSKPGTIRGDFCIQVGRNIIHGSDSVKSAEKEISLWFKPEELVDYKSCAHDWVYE
Sequence of NM23-H2 H118C (P22392 whole entry H118C): as the sequence (P22392 whole entry) above, with H118C counted along it
Sequence of NM23-H2 K12A (P22392 whole entry K12A): as the sequence (P22392 whole entry) above, with K12A counted along it

| Binder | binding result (NM23-H2 K12A) | binding result (NM23-H2 H118C) | binding result (NM23-H2 wild type [1]) | binding result (NM23-H2 wild type [2]) |
| --- | --- | --- | --- | --- |
| TGGGGAGGGTGGGGAGGGTGGGGAAGG (structured_DNA) [FG27T] | binds | binds | binds |  |
| TGGGGAGGGTGGGGAGGGTGGGGAAGG (structured_DNA) [c-MYC NHE G4 27-mer] |  |  |  | binds |
